Assay [1] concerns the target T1, α1-antichymotrypsin (ACT) (UniProt P01011 24-423).
T1 sequence (looked up): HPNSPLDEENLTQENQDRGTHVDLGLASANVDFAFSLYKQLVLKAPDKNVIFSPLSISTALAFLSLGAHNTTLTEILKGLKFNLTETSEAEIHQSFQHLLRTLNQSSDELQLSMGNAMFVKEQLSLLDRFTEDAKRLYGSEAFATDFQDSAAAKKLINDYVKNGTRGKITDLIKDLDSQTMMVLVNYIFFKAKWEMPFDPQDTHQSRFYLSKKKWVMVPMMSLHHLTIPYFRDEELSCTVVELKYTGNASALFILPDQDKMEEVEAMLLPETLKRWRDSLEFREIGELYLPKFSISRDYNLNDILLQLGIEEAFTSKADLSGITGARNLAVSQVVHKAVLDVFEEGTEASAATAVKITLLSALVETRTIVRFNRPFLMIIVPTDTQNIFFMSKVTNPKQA
In words: incubation with ACT, HIC-HPLC profile.

Assay [2] deals with T1, α1-antichymotrypsin (ACT). The assay can be described thus: incubation with ACT for two hours at 37° C., HIC-HPLC profile. As to the method: High performance hydrophobic interaction chromatography (HIC-HPLC) was performed using a polypropylaspartamide column (PolyLC, distributed by Western Analytical, Temecula, Calif.). The column was 4.6×250 mm in length with a 1000 Å pore size. Samples were applied in 1.5 M ammonium sulfate and eluted with a gradient: Buffer A: 1.2 M sodium sulfate, 25 mM sodium phosphate, pH 6.3, and Buffer B: 50 mM sodium phosphate, 5% v/v 2-propanol. The gradient was […], 1 min, 30-80% B, 12 min, then isocratic at 80% B for 2 min before equilibration in Buffer A. High sensitivity peak detection was obtained with a Varian Model 9070 scanning fluorescence detector using an excitation of 232 nm and emission of 334 nm to detect the tryptophan residues in protein.
To confirm that the pro forms of PSA are not reactive with ACT, a mixture of purified mature PSA, [−4]pPSA and [−7, −5]pPSA, were incubated with ACT. […] Only the mature PSA forms an ACT complex.

B1: [-4]pPSA (enzyme)
chain: not shown
notes: Recombinant from AV12 cells; also found in pooled prostate cancer serum; also called [-4]proPSA
As to B1, in assay [1], the binding result was “no binding (tested: 4× excess of ACT)”.

B2: [-7]pPSA (enzyme)
chain: not shown
notes: The purified peak holds about equal levels of [-7]pPSA and [-5]pPSA, which are not resolved from each other; also called [-7]proPSA; full length [-7]pPSA
As to B2, the binding result in assay [2] was “no binding”.

B3: [-2]pPSA (enzyme)
chain: not shown
notes: It is mature PSA preceded by the leader SR; also called [-2]proPSA
For B3, the binding result in assay [1] was “no binding (tested: 4× excess of ACT)”.

B4: [-5]pPSA (enzyme)
chain: not shown
notes: Not resolved from [-7]pPSA by HIC-HPLC; tested as an about equal mixture with [-7]pPSA; also called [-5]proPSA; part of the [-5/-7]pPSA peak
For B4, the binding result in assay [1] was “no binding (tested: 4× excess of ACT)”.
